Test results from doi:10.1101/2025.09.20.677498.

Assays:
[1] = target: HAdV-D10 fiber protein (human adenovirus type 10 (HAdV-D10)); test: cryo-EM structure
[2] = target: HAdV-D10 penton base (human adenovirus type 10 (HAdV-D10)); test: cryo-EM structure

Substance	stoichiometry N [1]	stoichiometry N [2]
HAdV-D10 fiber protein (natural protein)	3	–
HAdV-D10 penton base (natural protein)	–	5
